# Measurements published in patent publication US20240002331A1 (TIDAL THERAPEUTICS, published 2024).
# T1: CD20 on Raji (B-cell) cells (UniProt P11836 1-297, limits assumed)
# T1 sequence (looked up): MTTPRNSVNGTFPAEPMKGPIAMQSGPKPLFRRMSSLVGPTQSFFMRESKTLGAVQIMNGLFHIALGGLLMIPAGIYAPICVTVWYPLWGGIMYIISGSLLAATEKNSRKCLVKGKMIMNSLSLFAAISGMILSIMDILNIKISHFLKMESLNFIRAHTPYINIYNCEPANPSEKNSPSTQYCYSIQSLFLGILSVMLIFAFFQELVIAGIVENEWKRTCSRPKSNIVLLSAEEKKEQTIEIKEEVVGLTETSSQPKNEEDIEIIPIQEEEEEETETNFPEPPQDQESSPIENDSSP
# T2: human CD2 on primary human T-cells (human, UniProt P06729 25-351)
# T2 construct: whole, on cells
# T2 sequence (looked up): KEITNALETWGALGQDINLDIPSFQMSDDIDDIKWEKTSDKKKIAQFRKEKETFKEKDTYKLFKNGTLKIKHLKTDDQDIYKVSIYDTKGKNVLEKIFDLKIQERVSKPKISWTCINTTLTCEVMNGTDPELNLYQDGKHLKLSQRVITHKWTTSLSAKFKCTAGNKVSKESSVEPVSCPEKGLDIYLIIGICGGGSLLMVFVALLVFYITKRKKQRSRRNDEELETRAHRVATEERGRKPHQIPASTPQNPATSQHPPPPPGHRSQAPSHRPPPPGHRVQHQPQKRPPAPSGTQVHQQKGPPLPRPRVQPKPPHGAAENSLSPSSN
# T3: human CD7 on primary human T-cells (human, UniProt P09564 26-240)
# T3 construct: whole, on cells
# T3 sequence (looked up): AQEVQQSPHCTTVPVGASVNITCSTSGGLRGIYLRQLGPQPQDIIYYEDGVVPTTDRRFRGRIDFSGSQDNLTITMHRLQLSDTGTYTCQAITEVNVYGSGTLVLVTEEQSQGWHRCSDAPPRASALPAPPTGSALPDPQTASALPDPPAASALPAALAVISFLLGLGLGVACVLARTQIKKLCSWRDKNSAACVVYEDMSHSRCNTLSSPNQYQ
# What was measured:
# [1] = target: mouse CD8 on primary murine T-cells (murine) (UniProt P01731); assay: in vivo, DiI-labelled targeted LNPs injected i.v. in BALB/c mice, flow cytometry of blood 24 hours after injection; untargeted LNPs <2%
# [2] = target: mouse CD4 on primary murine T-cells (murine) (UniProt P06332); assay: in vivo, DiI-labelled targeted LNPs injected i.v. in BALB/c mice, flow cytometry of blood 24 hours after injection; untargeted LNPs ˜2%
# [3] = target: T1, CD20 on Raji (B-cell) cells; assay: cell-based or functional assay
# [4] = target: T2, human CD2 on primary human T-cells; assay: DiI-labelled LNP with inserted Fab conjugate on primary human CD3+ T cells, flow cytometry
# [5] = target: T4, human CD8 on primary human cells (CD8 T-cells, NK-cells) (human, UniProt P01732 22-235); assay: DiI-labelled LNP with inserted Fab conjugate, human whole blood, 24 h, flow cytometry (% DiI+ and DiI MFI) on CD4 and CD8 T-cells
# T4 construct: whole, on cells; also called CD8 receptor
# [6] = target: T3, human CD7 on primary human T-cells; assay: DiI-labelled LNP with inserted Nb conjugate on primary human CD3+ T cells, flow cytometry
# T4 sequence (P01732 22-235): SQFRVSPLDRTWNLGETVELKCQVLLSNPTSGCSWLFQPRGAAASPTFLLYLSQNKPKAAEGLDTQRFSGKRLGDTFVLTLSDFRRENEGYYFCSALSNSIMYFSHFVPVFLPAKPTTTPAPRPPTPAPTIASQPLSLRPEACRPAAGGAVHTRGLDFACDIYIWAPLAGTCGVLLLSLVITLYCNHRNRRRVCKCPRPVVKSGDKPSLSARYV
# mouse CD8 on primary murine T-cells (murine), sequence (P01731 28-247): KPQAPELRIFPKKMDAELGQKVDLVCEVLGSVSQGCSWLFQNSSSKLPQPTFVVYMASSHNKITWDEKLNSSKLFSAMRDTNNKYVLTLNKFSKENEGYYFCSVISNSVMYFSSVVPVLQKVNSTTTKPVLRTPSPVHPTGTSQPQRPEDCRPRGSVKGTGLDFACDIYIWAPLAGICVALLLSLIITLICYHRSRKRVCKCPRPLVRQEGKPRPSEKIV
# mouse CD4 on primary murine T-cells (murine), sequence (P06332 27-457): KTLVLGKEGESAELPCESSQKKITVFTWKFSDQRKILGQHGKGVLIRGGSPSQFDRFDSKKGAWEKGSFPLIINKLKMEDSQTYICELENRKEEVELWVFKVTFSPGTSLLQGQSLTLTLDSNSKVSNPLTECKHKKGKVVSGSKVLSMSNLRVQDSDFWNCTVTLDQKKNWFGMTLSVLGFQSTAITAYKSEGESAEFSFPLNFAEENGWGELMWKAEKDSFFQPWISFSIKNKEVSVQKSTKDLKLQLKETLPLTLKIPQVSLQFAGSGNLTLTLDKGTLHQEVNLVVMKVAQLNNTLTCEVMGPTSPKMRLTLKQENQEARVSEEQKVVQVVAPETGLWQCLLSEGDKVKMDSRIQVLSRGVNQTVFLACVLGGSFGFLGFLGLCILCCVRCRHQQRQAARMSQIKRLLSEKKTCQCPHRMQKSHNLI
molecule,measurement,setting,value
"anti-mouse CD8 Fab YTS156.7.7, inserted in LNPs",% of CD3+CD8+ T-cells in the blood with LNP-association (DiI+),[1],78%
"anti-mouse CD4 Fab GK1.5, inserted in LNPs",% of the CD3+CD4+ cell population DiI-positive,[2],67%
TTR-023 anti-CD20 (Leu-16) CAR (other) DYKAKEVQLQQSGAELVKPGASVKMSCKASGYTFTSYNMHWVKQTPGQGLEWIGAIYPGNGDTSYNQKFKGKATLTADKSSSTAYMQLSSLTSEDSADYYCARSNYYGSSYWFFDVWGAGTTVTVSSGGGSGGGSGGGGSSDIVLTQSPAILSASPGEKVTMTCRASSSVNYMDWYQKKPGSSPKPWIYATSNLASGVPARFSGSGSGTSYSLTISRVEAEDAATYYCQQWSFNPPTFGGGTKLEIKGGGGSAAAIEVMYPPPYLDNEKSNGTIIHVKGKHLCPSPLFPGPSKPFWVLVVVGGVLACYSLLVTVAFIIFWVRSKRSRLLHSDYMNMTPRRPGPTRKHYQPYAPPRDFAAYRSRVKFSRSAEPPAYQQGQNQLYNELNLGRREEYDVLDKRRGRDPEMGGKPRRKNPQEGLYNELQKDKMAEAYSEIGMKGERRRGKGHDGLYQGLSTATKDTYDALHMQALPPR,"% of dead Raji cells in co-culture with CAR-T cells (Lipid 9 or DLin-KC3-DMA LNPs), against mCherry transfected T-cells",[3],4 fold
same,"% of dead Raji cells in co-culture with CAR-T cells (Lipid 15 or DLin-KC3-DMA LNPs), against mCherry transfected T-cells",[3],4 fold
"anti-CD2 TS2/18.1 Fab NoDS, lipid conjugate (Fab, V domains shown, DSPE-PEG-maleimide coupled to the C-terminal cysteine in the heavy chain (methods of Example 4), Inserted in LNPs) VH: EVQLVESGGGLVMPGGSLKLSCAASGFAFSSYDMSWVRQTPEKRLEWVAYISGGGFTYYPDTVKGRFTLSRDNAKNTLYLQMSSLKSEDTAMYYCARQGANWELVYWGQGTLVTVSA VL: DIVMTQSPATLSVTPGDRVFLSCRASQSISDFLHWYQQKSHESPRLLIKYASQSISGIPSRFSGSGSGSDFTLSINSVEPEDVGVYFCQNGHNFPPTFGGGTKLEIKR",binding result,[4],binds
"mutOKT8-Fab (non-functional mutated OKT8), DSPE-PEG (2k) lipid conjugate (Fab, V domains shown, DSPE-PEG (2k)-maleimide coupled to the C-terminal cysteine in the heavy chain (conjugated using similar methods as hSP34), Negative control, inserted in mRNA LNPs; also called muOKT8) VH: QVQLVQSGAEDKKPGASVKVSCKASGFNIKDTYIHWVRQAPGQGLEWMGRIDPANDNTLYASKFQGRVTITADTSSNTAYMELSSLRSEDTAVYYCGRGAGAYVFDHWGQGTTVTVSS VL: DIVMTQSPSSLSASVGDRVTITCRTSRSISAALAWYQEKPGKAPKLLIYSGSTLQSGVPSRFSGSGSGTDFTLTISSLQPEDFATYYCQQHNENPLTFGQGTKVEIKR",binding result,[5],no binding
"Anti-CD7 V1 Nb, lipid conjugate (VHH, conjugated to DSPE-3.4K PEG-maleimide (the cysteine is not named in the example), The entry includes the C-terminal spacer, cysteine and His tag; Inserted in LNPs; also called αCD7) VHH: DVQLQESGGGLVQAGGSLRLSCAVSGYPYSSYCMGWFRQAPGKEREGVAAIDSDGRTRYADSVKGRFTISQDNAKNTLYLQMNRMKPEDTAMYYCAARFGPMGCVDLSTLSFGHWGQGTQVTVSI",binding result,[6],binds
"anti-CD2 9.6 Fab NoDS, lipid conjugate (Fab, V domains shown, DSPE-PEG-maleimide coupled to the C-terminal cysteine in the heavy chain (methods of Example 4), Inserted in LNPs) VH: QVQLQQPGAELVRPGSSVKLSCKASGYTFTRYWIHWVKQRPIQGLEWIGNIDPSDSETHYNQKFKDKATLTVDKSSGTAYMQLSSLTSEDSAVYYCATEDLYYAMEYWGQGTSVTVSS VL: NIMMTQSPSSLAVSAGEKVTMTCKSSQSVLYSSNQKNYLAWYQQKPGQSPKLLIYWASTRESGVPDRFTGSGSGTDFTLTISSVQPEDLAVYYCHQYLSSHTFGGGTKLEIKR",binding result,[4],binds
